Experimental data reported in patent US20250263500A1.

Molecular target: CD24 (human) (UniProt P25063)
Test: cell-based or functional assay

Sequence of CD24 (human) (P25063 27-59): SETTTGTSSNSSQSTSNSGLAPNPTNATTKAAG

Substance: negative control antibody (mouse IgG)
- Phagocytosis rate % (A549 tumor cells by human PBMC-derived M2 macrophages, antibody 5 µg/ml): 2.7%
- Phagocytosis rate (%) (MCF-7 tumor cells by human PBMC-derived M2 macrophages, antibody 5 µg/ml): 1.3%
